Assay results as given in the DeepSol protein solubility set.

Experiment: soluble on expression in E. coli; label from the status in PepcDB or PDB records

Sequence	soluble on expression in E. coli
MSLTKDDQKELGKTLWAIADQLRGSMNADDFRDYMLSFLFLRYLSDNYEAAAKKELGSDYPDAKTIGNSDKTPLSVWYASNPGDVAAFEQQMRRKAHYVIKPKYLWGNIVNLAKKQNHDLLDTLQQGFKHIEEDSFESEFQGLFSEINLASDKLGRKYDDRNAKLCSIISEIARGMALSAKTDSLGDAYEYLIGQFAAGSGKKAGEFYTPQEISNILSAIVTLDSQEPKTGPRGKLDSVFDFACGSGSLLLNIRNRMTNSGGSIGKIYGQEYNVTTYNLARMNMLLHGVKDTEFEIYHGDTLKNDWDWLRETNPAKKPRFDAVVANPPFSYRWEPGEAMAQDARFKNHGVAPKSAADFAFLLHGLQYLKDDGVMAIILPHGVLFRGGKEADIRRKLLDDGHIDTVIGLPANLFYSTGIPVCILVLKKCKKPDDVLFINAAGHFAKGKRQNQLTDEHIQRIVNTYQNRNKQDRYSRCVSMKEIADKDYNLNISRYVSTAEADKEIVLEAVHADLTAIESRLEESKKRHNAFLVELGLKPLPEGHHHHHH	soluble
MKRTVTVKLQPSKAQEETLKELAIISSKAWNKVNYLRRQEFFEGKPVDFLKTEKIVYEEFKSEIGSATVQQICRKNADAWRSFFSLIRSKRNGELPKWFKPKPPEYVKEGGLIILRNDQYKIEGNKLILKGLGKFKRLEVQFKGRIHLKGKQGRLEITFDPIRRKWYAHISYTVKEKLYGGEWVEVLRQPLGNLSAGIDLGVNNLMAVYVENGESFLVNGRPLKSIDFYWRKRIAEYQSKLNKSGVKKGRKLSKMHQKAKLQAKHYINTAIRRTVEKLYHLGVSRIVVGYPKGISRNSDKGKKQNYLLSHVWRFNYVIKRLREVAEEYGIQVLIVDEAFTSKLCPVCGKPHKGQGLFEDYLSVPRRGLPLMPTWLELSTFLEHHHHHH	soluble
MSLYKILLADDERIILDGMAGIIEWESLGASLIGKAQNGHEAYEKIVHKQPHIVITDVKMPGMDGLELIKKVSAVSPSVQFIVLSGFGEFEYAKEAMKYGVKHYLLKPCNEQQIISSLEEIIAELKRQDVHKKKTAHLKHELDHIRSFAADQYLEGLIAGVAQLSPPPSLAGKKIRLLILKGEQSIDAAAREALGSALTAVCSSGEWTVLAVEENAAEKVAEVFADRKMAISQAGELRHAGQLFRDTAEASGDLHGSAVISKMIRLIADELGNPNLSLKWAAKDMLFMNPDYLGKLFKQETGEKFSQYVTRVRLEHAMKQMKIRRDVSVSEIAEEIGFGDNPKYFSLVFKKYTGLTPSEFRRKQGGASAGEGHHHHHH	soluble
GPGSMKTENFPRGQSAGPEGSLVEIPDHGERQQEVCHIGAPLQREIEAPAAEAGQSSDYKKPHAPHLLPVMEPVKPSSDPQLKDGRKEMPFTSALPIVVPDAPRLATQQRQVQKTKGNGSSAVPGEPDTCEGEPRAPSPGDPRPTQAFPAVEPFKRTASAKLSEARTDPRSPSASPDNESDGARVGSRQVDEEGSRPLCTLPAVELRKKPAGSTLQEEQAKELNTTHAFPVVEPDAVCTEARRSEELEDTRAGHAFPPVASGKQNTGA	soluble
FRRTGIRRIIIGQDQILFESSDNTVQIFPLNTLKSVDLYSTYDEMIELKAHRQPKITLSKSWIKRKDYRFIVSYLRERSATSGYKYTDYR	not soluble
MYPIKYVENNLVFNQEGECFAYYELVPYNYSFLSPEQKYQVHDNFRQLIAQNREGKIHALQIATESSIRATQERSKKEITGRLKEVAKQRIDLQTDALVSMIGDSQIDYRFFIGFKLIATDEEVNLKSLKKSFLSGLQEFVYGVNHHLMGDFVSLSNEEIRRYTKLEKLMESKLARRFKVRRVTPSDLTYLIEHIYGEKGTPFEEYEFQLPKKKLKSETLVKRYDLLHPSRCLIEENPRYLRMEHENHESYVAYLTINTIVGEMEFPSSELFYYQQQQFTFPIDTSMNVEIVTNKKALATVRNKKKELKDLDNHAYQSDNETNSNVLDALDSVNELETTLDQSKESMYKLSYVVRVSAESVDELKRRCDEVFDFYDDTNVKLVRPFGDMMGLHEEFLPSSKRYMNDYIQYVTSDFLAGLGFGATQKLGELEGIYFGYNVDTGRNVYLKPALASQGVKGSVTNALAAAFLGSLGGGKSFSNNLLVYYAVLFGGQAVIVDPKGERGGWKENLPEIADEINILNLTSKPENQGLLDPYVIMKKKKDSESLAIDILTFLTGISSRDGEKFPVLRKAIRTVTQSDQRGLLQVINELRKENSPVAENIADHIESFTDYDFAHLLFSDGSITQSISLDKQLNIIQVADLVLPDAETTFEEYTTMELLSVSMLIVISTFALDFIHSNREIFKIVDLDEAWSFLQVAQGKTLSNKLVRAGRAMNAGVYFVTQNSDDLLDERLKNNIGLKFAFRSTDIHEIKKTLEFFGLDQEDESNQKRLRDLENGQCLMQDLYGRVGVVQVHPVFEELFHAFDTRPPVQERME	not soluble
MGSDKIHHHHHHMNMPNSFSNSHIYLGNVMHRRFSPKKHSFDYRLFMLALDVADVEKAQGGFGVFGFSWYRPLRFVETDYLKESIKDNSKDNLAGDPRSLSHRIKNKVHELAGYADIKRIVMLVQVRCFGIYFSPANFYFCYDQDDKCTQMLAEVSNTPWNERHYYLVDLLKEEGDKTTKKMFQVSPFMDLAMTYFWQVTPPCNGNDKLLVKIENKRVNDESGTVSKLFDASLVMRRKPFTKASLLRIWGQLPVMTMKVVVTIYWQALKLFIKRVPFIGYQKPS	not soluble
MAELRVLVAVKRVIDYAVKIRVKPDRTGVVTDGVKHSMNPFCEIAVEEAVRLKEKKLVKEVIAVSCGPAQCQETIRTALAMGADRGIHVEVPPAEAERLGPLQVARVLAKLAEKEKVDLVLLGKQAIDDDCNQTGQMTAGFLDWPQGTFASQVTLEGDKLKVERAIDGGLETLRLKLPAVVTADLRLNEPRYATLPNIMKAKKKKIEVIKPGDLGVDLTSKLSVISVEDPPQRTAGVKVETTEDLVAKLKEIGRI	soluble
PGSSGLPPEKPKNLSCIVNEGKKMRCEWDGGRETHLETNFTLKSEWATHKFADCKAKRDTPTSCTVDYSTVYFVNIEVWVEAENALGKVTSDHINFDPVYKVKPNPPHNLSVINSEELSSILKLTWTNPSIKSVIILKYNIQYRTKDASTWSQIPPEDTASTRSSFTVQDLKPFTEYVFRIRCMKEDGKGYWSDWSEEASGITYEDRPSKEPSFW	soluble
MIIREQRVEKFNAGKAVYQSVSKTESLARTAKDRKICANLEEAIRRSGLKDGMTVSFHHAFRAGDCVVNMVMNKIAEMGFKNLTLASSSLIDSHYPLIEHIKNGVVTKIYSSGLRGQLADEISRGLLAEPVNIHSHGGRVHLIKAGELKIDVAFLGVPCCDKFGNANGFSGKSKCGSLGYARIDAEYADKVVLLTEQFDEYPLNPISIGQDNVDLIVQVDEVGDPEKIGGGATRMTTNPRELLIARKCAQVIFASGYFKDGFSLQTGTGGASLAVTRFLEDKMRREQITAGFALGGITSSIVALHEAGLIKKLIDVQSFDKDAAESLARNPNHIEVSANQYANYSSKGPSVECLDIVVLSALEIDTQFNVNVLTGSDGVIRGASGGHSDTAASAQVAIIVAPLVRGRIPTVVEQVITCVTPGENIDILVTDHGVAVNPKRLDLVDKLTAAGLELFTIEQLCARAYSITGKSKEIEFKDKPVAVVRYRDGSVIDTVYQIKELEHHHHHH	soluble
SNPLCSRCNRVVYPTEKVNCLDKYWHKGCFSCEVCKMTLNMKNYKGFEKRPYCNAHYPKTSFTSVADTPENLRLKQQSKMQSQVLYKEEFEKNKGKGFSVVADTPELQRIKKTQDQISNIKYHEDFEKSRSGGDTPLPLTPQLNTPPAYPSSAASQNYHYEPEPVRPAAAAPPPSSGKRYRAVYDYTAADEDEVSFMDGDMIVDVQQIDEGWMYGRVERTGQQGMLPANYVEAM	soluble
MGSDKIHHHHHHMTKNSETGHISEGGGILTRPDDATIAYRRLEGKTPGVVFLHGFHSDMEGSKALALEAMCQAQGRAFLRFDYFGHGKSSGDVALGTIGRWAADAVAVIGELTKGPQILVGSSLGGWIALLAALEMKDKVAGLVGVAAAPDFTEDLMWQDFTFEQRRTLMETGELELPNCHEPDNPWRIHRSLIEDGRNHLLLRDLIQIHCPVWLIQGQKDEDVPWQTALRLADCLASEQVEIVLVKDGDHRLSRDGDLIRLTNMVAAMLGMIQEL	not soluble
MTMKGGVASQDFSAAIATACEPAANVWSKVCVALKRELGDAAFGSWIAPAMLREAATGDVVLVTSTGIARDWIRRSAWRRIGELWAAHDATGRRIDLKSRLEFEAAAGAYVEATPKAVAAEPIEIVLPVSTDAPTVVAPSAKSPRTQGLQERFTFETFVPGPANEFAHAVARRIANWADGHFNPVLFHGPYGFGKTHLLNALAWEAMRNAPEKRVVYLTAERFLSTFVRAVMDRQTAAFKEELRAADLLIIDDVHFIAGKQSTQEELFHTLTALVGEGGRVVFSADRPPSAMTEMDAHLRSHLSAGLVCGLEPADRNLRLGILERKIQTLGAAHGFEPSIRPEVMQFLADRFTDSVRELEGALNTLSARAGEGLSRMTLDEVQAILRPHLRSGEKRITIDDIQKATAEHYGMKQADLLSERRNRAVARPRQAAMWLAKQLTTRSLPDIGRRFGGRDHTTVLHAVRRIEALRAEDSALSHDLETLTRKLRGLEHHHHHH	not soluble
TTYKHSLQDLTAQRSLGAIPFAGRYRLIDFMLSNMVNADIRSVAIFPKYRYRSLMDHLGAGKEWDLHRKKDGLFFFPSPHLHHEYDEFGSFRQFSDHLDYFHRSTQQYAVISNSHTVCNIQFQYVLKRHQEVGCDVTEVFQDGQSLQIYIMSTTLLKDLIYGHSEKGYKTIQEAVEKESSALTICPYEYSGYAAVIDSVEKYYTHSMELIQPRFWQQVFLPQQPIYTKVKDEPPTKYGKHSTVKNSLVANGCVLEGEVENCILFRAVHVGKGTKLKNCIIMQKTQIGEDCLLEQVISDKDVKIGKATEAAGTAEQPLVLRKGLVQGE	not soluble
MGSDKIHHHHHHMTVLQLPIIDISGLTCQRNNSSDVVAQQIKQACQDYGFFYIVGHGVDEQLQTQLEHLSQEFFAQDQETKLKISMALGGRAWRGYFPVGNELTSGRPDLKEGIYFGSELKDNHPLVKAGTPMHGRNLFPSNIPQFRETVLEYIDSMTKLGHILMAGIALSLDLDKSYFAERYTKDPLILFRIFNYPPNLGSQSEWGVGEHTDYGVLTILKQDNIGGLQVKSKSGWIDAPPIPGSFVCNIGDMLDRMTRGLYRSTPHRVRNLSTSNRLSFPFFFDPNFNVEVKPIDLKDVVVKDDQSDRWDKASVHEFRGTYGDYLLKKVSKVFPELRQKVL	not soluble
MKLKAILIVALSVVLFLVGYREMKPISDEQKMESMIKALEKNDAKVEKWSWLARETKTISNIHTFQKLLNDVKEKANIQKWEVEQSPDGYKATSYKKLSSYEERVVVTWSKENTKENTFIIFEVSGAKWDPKYVQNMNKIFSEKPIIYTCVQGVLNDKIEGVLQNKTNQVLKDLSARAIEQVEERAFVSVSAYNKKWDDALSTNREKINVQIAIRSTDNKDTIVVGTPIITSEY	not soluble
MSTEQANGTTIEEKKDKVAEVTEKLDNLAVDTTNEANDAKQPARRGGFRGRGRGRGRGGHFYQPRPPYEDQMKKLEEDLASKKVIETGVKGHVKWFSVRGRYGFVARDKPTDENEDFFVHQTAITKSSTIKFYLRTLDDDEPVVFDIVEGLKGPEAANVTGPDGENVRGSRFARTLLTHWRTRGRGGARGRGGRGRGAPRQTRDQDGDEKDEKEKSDTIENSGDGETRGKRRTRRHGKLQPDAPSGEKGDGDAAAATTDAAPAAEKKKKRQRKGNKEPTTTTEQKEETAAPAKA	not soluble
MGSDKIHHHHHHMKLSLVISTSDAAFDALAFKGDLRKGMELAKRVGYQAVEIAVRDPSIVDWNEVKILSEELNLPICAIGTGQAYLADGLSLTHPNDEIRKKAIERVVKHTEVAGMFGALVIIGLVRGRREGRSYEETEELFIESMKRLLELTEHAKFVIEPLNRYETDFINTIDDALRILRKINSNRVGILADTFHMNIEEVNIPESLKRAGEKLYHFHVADSNRWAPGCGHFDFRSVFNTLKEIGYNRYVSVECLPLPGGMEEAAEIAFKTLKELIIKLT	not soluble
